Measurements from the supplement of paper PMC11196671.

Legend:
[1] = PET hydrolysis product formed (TPA+MHET+BHET, UV-Vis) per mg enzyme (mmol/mg enzyme); higher = more PET depolymerisation activity; extreme values may be limits of the assay; conditions: 2 h
Method: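 Purified PET hydrolases (His-SUMO cleaved, E. coli C41(DE3) small-scale expression), 2.5 ug enzyme on 3.5 mg amorphous PET film (aFilm) or crystalline PET powder (cryPow) in 0.5 mL of 50 mM buffer (NaCitrate pH 4.5/5.5, NaPhosphate 6.5/7.5, glycine 8.5/9.5) at 60 or 70 C with shaking for 2 h. Soluble aromatic products (TPA+MHET+BHET) were quantified by UV-Vis at 260/280 nm, blank-subtracted against the no-enzyme control, and normalised per mg enzyme; duplicate reactions.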

[2] = MHET released, HPLC; higher = more MHET released; extreme values may be limits of the assay; conditions: 24 h
Method: (§1)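 Purified PET hydrolases, 2.5 ug enzyme on 3.5 mg amorphous PET film (aFilm) or crystalline PET powder (cryPow) in 0.5 mL of 50 mM buffer (NaCitrate pH 4.5/5.5, NaPhosphate 6.5/7.5, glycine 8.5/9.5) at 60 or 70 C with shaking for 24 h. Total aromatic product by UV-Vis (260/280 nm, blank-subtracted, normalised per mg enzyme) and individual TPA, MHET, BHET concentrations by UHPLC-DAD at 240 nm; duplicate reactions.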

[3] = terephthalic acid (TPA) released, HPLC; higher = more TPA released; extreme values may be limits of the assay; conditions: 24 h
Method: as §1

[4] = BHET released, HPLC; higher = more BHET released; extreme values may be limits of the assay; conditions: 24 h
Method: as §1

QTNPYARGPDPTAASLEASAGPFTVRSFTVSRPSGYGAGTVYYPTNAGGTVGAIAIVPGYTARQSSIKWWGPRLASHGFVVITIDTNSTLDQPESRSSQQMAALEQVASLNGTSSSPIYGKVDTARMGVMGWSMGGGGSLISACNNPSLKAAVVQAPWHSSTNFSCVTVPTLIFACENDSIAPVNSSALPIYDSMSENAKQFLEICGGSHSCANTGNSDQALIGKKGVAWMKRFMDNDTRYSTFACENPNSTRVCDFRTANCS [Z1-PETase]
Conditions | BHET released, [4] [mM] | MHET released, [2] [mM] | PET hydrolysis product formed, [1] | terephthalic acid, [3] [mM]
PET substrate: aFilm, 60 °C, pH 4.5 | 0 | 0 | 0 | 0
PET substrate: aFilm, 60 °C, pH 5.5 | 0 | 0 | 0 | 0
PET substrate: aFilm, 60 °C, pH 6.5 | 0 | 0.321 | 0 | 0.227
PET substrate: aFilm, 60 °C, pH 7.5 | 0 | 1.88 | 0.032 | 0.685
PET substrate: aFilm, 60 °C, pH 8.5 | 0 | 0.249 | 0.03625 | 0.179
PET substrate: aFilm, 60 °C, pH 9.5 | 0 | 1.03 | 0.0733 | 1.22
PET substrate: aFilm, 70 °C, pH 4.5 | 0 | 0 | 0 | 0
PET substrate: aFilm, 70 °C, pH 5.5 | 0 | 0 | 0 | 0
PET substrate: aFilm, 70 °C, pH 6.5 | 0 | 0 | 0 | 0
PET substrate: aFilm, 70 °C, pH 7.5 | 0 | 0.0119 | 0 | 0.0109
PET substrate: aFilm, 70 °C, pH 8.5 | 0 | 0.00565 | 0 | 0.00307
PET substrate: aFilm, 70 °C, pH 9.5 | 0 | 0 | 0.00338 | 0.0495
PET substrate: cryPow, 60 °C, pH 4.5 | 0 | 0 | 0 | 0
PET substrate: cryPow, 60 °C, pH 5.5 | 0 | 0.053 | 0 | 0.0408
PET substrate: cryPow, 60 °C, pH 6.5 | 0.00328 | 0.476 | 0.0995 | 0.114
PET substrate: cryPow, 60 °C, pH 7.5 | 0 | 0.522 | 0.135 | 0.236
PET substrate: cryPow, 60 °C, pH 8.5 | 0 | 0.343 | 0.102 | 0.225
PET substrate: cryPow, 60 °C, pH 9.5 | 0 | 0.071 | 0.13 | 0.72
PET substrate: cryPow, 70 °C, pH 4.5 | 0 | 0 | 0 | 0
PET substrate: cryPow, 70 °C, pH 5.5 | 0 | 0 | 0 | 0
PET substrate: cryPow, 70 °C, pH 6.5 | 0 | 0.125 | 0.0288 | 0.0337
PET substrate: cryPow, 70 °C, pH 7.5 | 0 | 0.181 | 0.0688 | 0.17
PET substrate: cryPow, 70 °C, pH 8.5 | 0 | 0.123 | 0.0583 | 0.0464
PET substrate: cryPow, 70 °C, pH 9.5 | 0 | 0.0142 | 0.0657 | 0.367

SNPYQRGPNPTRSALTADGPFSVATYTVSRLSVSGFGGGVIYYPTGTSLTFGGIAMSPGYTADASSLAWLGRRLASHGFVVLVINTNSRFDGPDSRASQLSAALNYLRTSSPSAVRARLDANRLAVAGHSMGGGGTLRIAEQNPSLKAAVPLTPWHTDKTFNTSVPVLIVGAEADTVAPVSQYAIPFYQNLPSTTPKVYVELCNASHIAPNSDNAAISVYTISWMKLWVDNDTRYRQFLCNVNDPALCDFRTNNRHCQ [LCC-A2]
Conditions | BHET released, [4] [mM] | MHET released, [2] [mM] | PET hydrolysis product formed, [1] | terephthalic acid, [3] [mM]
PET substrate: aFilm, 60 °C, pH 4.5 | 0 | 0.107 | 0 | 0.195
PET substrate: aFilm, 60 °C, pH 5.5 | 0 | 0.735 | 0.031 | 0.792
PET substrate: aFilm, 60 °C, pH 6.5 | 0 | 1.23 | 0.061 | 1.34
PET substrate: aFilm, 60 °C, pH 7.5 | 0 | 6.36 | 0.144 | 5.52
PET substrate: aFilm, 60 °C, pH 8.5 | 0 | 0.322 | 0.0742 | 0.776
PET substrate: aFilm, 60 °C, pH 9.5 | 0.0275 | 2.64 | 0.154 | 2.661
PET substrate: aFilm, 70 °C, pH 4.5 | 0 | 0 | 0 | 0.0095
PET substrate: aFilm, 70 °C, pH 5.5 | 0.00399 | 0.429 | 0.0749 | 0.455
PET substrate: aFilm, 70 °C, pH 6.5 | 0 | 0.862 | 0.138 | 0.83
PET substrate: aFilm, 70 °C, pH 7.5 | 0.0146 | 8.82 | 0.418 | 5.42
PET substrate: aFilm, 70 °C, pH 8.5 | 0 | 0.253 | 0.09 | 0.643
PET substrate: aFilm, 70 °C, pH 9.5 | 0 | 2.25 | 0.423 | 2.9
PET substrate: cryPow, 60 °C, pH 4.5 | 0.0062 | 0.1017 | 0.0208 | 0.0633
PET substrate: cryPow, 60 °C, pH 5.5 | 0 | 0.24 | 0.0469 | 0.132
PET substrate: cryPow, 60 °C, pH 6.5 | 0 | 0.476 | 0.062 | 0.232
PET substrate: cryPow, 60 °C, pH 7.5 | 0 | 0.733 | 0.127 | 0.39
PET substrate: cryPow, 60 °C, pH 8.5 | 0 | 0.261 | 0.0645 | 0.174
PET substrate: cryPow, 60 °C, pH 9.5 | 0 | 0.281 | 0.0424 | 0.789
PET substrate: cryPow, 70 °C, pH 4.5 | 0 | 0.0080455 | 0 | 0.0184
PET substrate: cryPow, 70 °C, pH 5.5 | 0 | 0.168 | 0.0282 | 0.0932
PET substrate: cryPow, 70 °C, pH 6.5 | 0 | 0.421 | 0.0641 | 0.209
PET substrate: cryPow, 70 °C, pH 7.5 | 0 | 0.748 | 0.107 | 0.639
PET substrate: cryPow, 70 °C, pH 8.5 | 0 | 0.293 | 0.0569 | 0.157
PET substrate: cryPow, 70 °C, pH 9.5 | 0 | 0.189 | 0.0859 | 0.987
